Source: PMC5909903, “Impact of selected amino acids of HP0377 (Helicobacter pylori thiol oxidoreductase) on its functioning as a CcmG (cytochrome c maturation) protein and Dsb (disulfide bond) isomerase” (PLoS ONE, 2018)

B1: HP0377 (Helicobacter pylori thiol oxidoreductase), amino acids 33-221 (domain or fragment, Helicobacter pylori strain 26695, UniProt O25140 33-221, looked up)
chain: LDENLLSSGSQSSKELNDERDNIDKKSYAGLEDVFSDNKSISPNDKYMLLVFGRNGCSYCERFKKDLKNVKELRDYIKEHFSAYYVNISYSKEHDFKVGDKNNEKEIKMSTEELAQIYAVQSTPTIVLSDKTGKTIYELPGYMPSTQFLAVLEFIGDGKYQDTKDDEDLTKKLKAYIKYKTNLSKSKSN
notes: HP0377 (CcmG family thiol oxidoreductase), Helicobacter pylori 26695, amino acids 33-221 of the native HP0377; the variant previously analysed by Yoon et al. [16]; also called 33-221 variant of HP0377; N-terminal-shortened HP0377; source: E. coli, purified
B2: HP0377 (Helicobacter pylori thiol oxidoreductase), amino acids 25-187 (domain or fragment, Helicobacter pylori strain 26695, UniProt O25140 25-187, looked up)
chain: CKSNNKDKLDENLLSSGSQSSKELNDERDNIDKKSYAGLEDVFSDNKSISPNDKYMLLVFGRNGCSYCERFKKDLKNVKELRDYIKEHFSAYYVNISYSKEHDFKVGDKNNEKEIKMSTEELAQIYAVQSTPTIVLSDKTGKTIYELPGYMPSTQFLAVLEFI
notes: HP0377 (CcmG family thiol oxidoreductase), Helicobacter pylori 26695, amino acids 25-187 of the native HP0377; also called 25-187 variant of HP0377; C-terminal-truncated HP0377; source: E. coli, purified

Tests used:
[1] = target: apocytochrome c (HP1227) (Helicobacter pylori) (UniProt O25825); test: SEC; lysates of E. coli overexpressing HP0377 CSYA and HP1227 mixed, overnight at 37°C, Ni IMAC, then ENrich SEC70 in 20 mM Tris pH 8, 150 mM NaCl; fractions on SDS-PAGE with or without DTT; covalent (disulfide) complex
[2] = target: the molecule itself; test: cross-linking; glutaraldehyde (0.001-0.1%) on purified truncated HP0377 at 2.5 mg/ml, SDS-PAGE

Molecule | stoichiometry N (HP0377 per apocytochrome c) [1] | stoichiometry N [2]
HP0377 with the CSYC motif changed to CSYA (C92A), amino acids 25-221, His6 fusion (from UniProt O25140 25-221) (enzyme) | 2 | 
B1 |  | 2
B2 |  | 2
